Assay results: publication PMC3022644, “The exopolyphosphatase TbrPPX1 of Trypanosoma brucei” (BMC Microbiology, 2011)

Substrate: O=P(O)(O)OP(=O)(O)OP(=O)(O)O
Assay: purified protein
Type: biochemical, Trypanosoma brucei
Conditions: 50 mM HEPES pH 7.8, 50 μM EGTA, 1 mM MgCl2, 30°C, GST fusion

B1: TbrPPX1 (Trypanosoma brucei) (protein)
chain: MTAVVNEFLKRGVRALAARQDSVLVMGNEGGDMDTVIGSIFLAMYLEKRDVFGVGSYVPVLNFEKDDLPLRQDVVKLLSRHNVSTDSIYSVKQSGNGVDFLDLHQMKLPIVLYDHNKLSPEQVYLGERIVGVVDHHEDEQLYVDQTKCLRRICKTGSACTLVAELFNEAGLEVPCPELLLAPIVVDTVNFEPSQKRVTERDILASRLLVGRDDCGDYLTGMFKELMAWKNDIHCLTVPQHLRRDYKNFEFPFISAENKILRVGISSISCRSDELLSVHGVSSVSSNCIEFIKQRSIDMLLLTFAGERTPGSYCRQLGVVAKDEGLAALQAYCKKSPSGLDFTLLEDVTVNEWAFSIYELSDPSVSRKKLVPSLTSFLSVWNNL
Protein B1 has a Km of 27.2 ± 4.2 µM and a kcat of 8.1 ± 1.5 s⁻¹.
